{"source": "paper PMC4822050", "key": {"[1]": {"biological_target": "T1, SRA-Spacer-652 (human, UniProt Q96T88 414-652)", "T1 sequence": "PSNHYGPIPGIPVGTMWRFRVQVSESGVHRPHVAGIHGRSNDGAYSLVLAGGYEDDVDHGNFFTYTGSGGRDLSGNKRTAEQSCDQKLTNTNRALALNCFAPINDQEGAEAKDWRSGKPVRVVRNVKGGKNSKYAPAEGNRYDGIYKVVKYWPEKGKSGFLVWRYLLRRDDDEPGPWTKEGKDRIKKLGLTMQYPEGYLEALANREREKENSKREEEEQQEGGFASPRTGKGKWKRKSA", "experiment": "FP; ITC: 10 mM HEPES pH 8.0, 100 mM NaCl, 18 C; EMSA: 20 mM HEPES pH 7.5, 100 mM NaCl, 8% glycerol, 1 mM DTT, on ice; pull-down: 20 mM HEPES-NaOH pH 8.0, 100 mM NaC"}, "[2]": {"biological_target": "T2, SRA-Spacer-642 (human, UniProt Q96T88 414-642)", "T2 sequence": "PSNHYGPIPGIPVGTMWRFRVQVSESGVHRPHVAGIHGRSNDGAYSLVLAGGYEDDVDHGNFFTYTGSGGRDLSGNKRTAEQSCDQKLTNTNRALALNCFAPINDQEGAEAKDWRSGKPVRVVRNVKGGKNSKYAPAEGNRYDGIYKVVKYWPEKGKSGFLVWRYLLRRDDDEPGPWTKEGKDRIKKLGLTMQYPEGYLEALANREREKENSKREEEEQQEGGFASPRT", "experiment": "FP; ITC: 10 mM HEPES pH 8.0, 100 mM NaCl, 18 C; EMSA: 20 mM HEPES pH 7.5, 100 mM NaCl, 8% glycerol, 1 mM DTT, on ice; pull-down: 20 mM HEPES-NaOH pH 8.0, 100 mM NaC"}, "[3]": {"biological_target": "T3, SRA-Spacer (human, UniProt Q96T88 414-674)", "T3 sequence": "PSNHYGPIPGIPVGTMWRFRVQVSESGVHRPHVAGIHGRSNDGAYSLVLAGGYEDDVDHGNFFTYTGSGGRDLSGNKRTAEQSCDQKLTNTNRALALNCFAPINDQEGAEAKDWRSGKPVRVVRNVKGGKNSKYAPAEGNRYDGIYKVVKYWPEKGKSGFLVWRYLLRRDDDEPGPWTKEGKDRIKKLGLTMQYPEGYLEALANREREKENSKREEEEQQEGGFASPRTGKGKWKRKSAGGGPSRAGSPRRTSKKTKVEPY", "experiment": "FP; 50 mM NaCl; ITC: 10 mM HEPES pH 8.0, 100 mM NaCl, 18 C; EMSA: 20 mM HEPES pH 7.5, 100 mM NaCl, 8% glycerol, 1 mM DTT, on ice; pull-down: 20 mM HEPES-NaOH pH 8.0, 100 mM NaC"}, "[4]": {"biological_target": "T4, SRA (human, UniProt Q96T88 414-617)", "T4 sequence": "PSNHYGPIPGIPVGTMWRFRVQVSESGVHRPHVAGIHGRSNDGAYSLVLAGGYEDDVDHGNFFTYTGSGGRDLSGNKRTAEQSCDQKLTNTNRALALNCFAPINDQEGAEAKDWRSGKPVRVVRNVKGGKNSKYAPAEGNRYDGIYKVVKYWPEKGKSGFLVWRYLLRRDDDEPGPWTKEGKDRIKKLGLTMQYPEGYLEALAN", "experiment": "FP; 50 mM NaCl; ITC: 10 mM HEPES pH 8.0, 100 mM NaCl, 18 C; EMSA: 20 mM HEPES pH 7.5, 100 mM NaCl, 8% glycerol, 1 mM DTT, on ice; pull-down: 20 mM HEPES-NaOH pH 8.0, 100 mM NaC"}, "[5]": {"biological_target": "T3, SRA-Spacer", "experiment": "FP; 150 mM NaCl; ITC: 10 mM HEPES pH 8.0, 100 mM NaCl, 18 C; EMSA: 20 mM HEPES pH 7.5, 100 mM NaCl, 8% glycerol, 1 mM DTT, on ice; pull-down: 20 mM HEPES-NaOH pH 8.0, 100 mM NaC"}, "[6]": {"biological_target": "T5, UHRF1 deltaSRA (human, UniProt Q96T88 1-793, del414-617)", "T5 sequence": "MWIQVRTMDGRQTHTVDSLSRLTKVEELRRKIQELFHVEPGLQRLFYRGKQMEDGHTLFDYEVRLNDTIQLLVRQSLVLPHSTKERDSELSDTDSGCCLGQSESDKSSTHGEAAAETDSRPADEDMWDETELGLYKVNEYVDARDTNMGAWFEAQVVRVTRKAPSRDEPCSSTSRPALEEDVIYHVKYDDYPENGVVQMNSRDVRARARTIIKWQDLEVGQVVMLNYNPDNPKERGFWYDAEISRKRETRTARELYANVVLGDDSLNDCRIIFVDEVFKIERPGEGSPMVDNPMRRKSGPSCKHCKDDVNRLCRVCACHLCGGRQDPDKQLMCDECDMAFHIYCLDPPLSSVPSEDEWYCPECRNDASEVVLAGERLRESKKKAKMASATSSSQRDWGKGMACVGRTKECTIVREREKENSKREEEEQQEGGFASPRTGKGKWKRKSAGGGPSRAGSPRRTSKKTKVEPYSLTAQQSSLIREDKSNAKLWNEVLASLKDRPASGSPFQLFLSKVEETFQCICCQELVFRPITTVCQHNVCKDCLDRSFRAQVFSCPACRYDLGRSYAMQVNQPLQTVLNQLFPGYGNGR", "experiment": "FP; not detectable; ITC: 10 mM HEPES pH 8.0, 100 mM NaCl, 18 C; EMSA: 20 mM HEPES pH 7.5, 100 mM NaCl, 8% glycerol, 1 mM DTT, on ice; pull-down: 20 mM HEPES-NaOH pH 8.0, 100 mM NaC"}}}
{"binder": "FAM-12bp-HM-DNA (dsDNA, 5-methyl-dC at position 6 of strand 2 (GTCAGXGCATGG)) DNA 1: CCATGCGCTGAC DNA 2: GTCAGCGCATGG", "values": [{"measurement": "Kd", "setting": "[1]", "result": "1870 ± 330", "unit": "nM"}, {"measurement": "Kd", "setting": "[2]", "result": "6110 ± 1150", "unit": "nM"}, {"measurement": "Kd", "setting": "[3]", "result": "24 ± 3.7", "unit": "nM"}, {"measurement": "Kd", "setting": "[4]", "result": "150 ± 18", "unit": "nM"}, {"measurement": "Kd", "setting": "[5]", "result": "580 ± 98", "unit": "nM"}, {"measurement": "binding result", "setting": "[6]", "result": "no binding"}]}
